From article doi:10.1101/2024.07.10.601956

Target: Synthetic Mtln protein (UniProt Q8NCU8)
Test: mass photometry

stoichiometry N: 6
Substance: Synthetic Mtln protein (from UniProt Q8NCU8 1-56) (natural protein)
